Results as given in publication doi:10.64898/2025.12.11.693645 (bioRxiv, 2025).

Molecular target: the molecule itself
Assay: crystal structure

B1: full length HtpG from M. tuberculosis (HtpGMtb) (enzyme)
chain: MNAHVEQLEFQAEARQLLDLMVHSVYSNKDAFLRELISNASDALDKLRIEALRNKDLEVDTSDLHIEIDADKAARTLTVRDNGIGMAREEVVDLIGTLAKSGTAELRAQLREAKNAAASEELIGQFGIGFYSSFMVADKVQLLTRKAGESAATRWESSGEGTYTIESVEDAPQGTSVTLHLKPEDAEDDLHDYTSEWKIRNLVKKYSDFIAWPIRMDVERRTPASQEEGGEGGEETVTIETETLNSMKALWARPKEEVSEQEYKEFYKHVAHAWDDPLEIIAMKAEGTFEYQALLFIPSHAPFDLFDRDAHVGIQLYVKRVFIMGDCDQLMPEYLRFVKGVVDAQDMSLNVSREILQQDRQIKAIRRRLTKKVLSTIKDVQSSRPEDYRTFWTQFGRVLKEGLLSDIDNRETLLGISSFVSTYSEEEPTTLAEYVERMKDGQQQIFYATGETRQQLLKSPHLEAFKAKGYEVLLLTDPVDEVWVGMVPEFDGKPLQSVAKGEVDLSSEEDTSEAEREERQKEFADLLTWLQETLSDHVKEVRLSTRLTESPACLITDAFGMTPALARIYRASGQEVPVGKRILELNPSHPLVTGLRQAHQDRADDAEKSLAETAELLYGTALLAEGGALEDPARFAELLAERLARTL
binding result: binds
